Measurements: patent US20260009052, “CAS12 PROTEINS AND USES THEREOF” (GUANGZHOU REFORGENE MEDICINE CO., LTD., published 2026)

How the values were obtained:
C12-279 L260R = target: T1, C12-279 L260R (synthetic construct, L260R); experiment: cell_activity; PAM TTG; +/-0.14
T1 chain: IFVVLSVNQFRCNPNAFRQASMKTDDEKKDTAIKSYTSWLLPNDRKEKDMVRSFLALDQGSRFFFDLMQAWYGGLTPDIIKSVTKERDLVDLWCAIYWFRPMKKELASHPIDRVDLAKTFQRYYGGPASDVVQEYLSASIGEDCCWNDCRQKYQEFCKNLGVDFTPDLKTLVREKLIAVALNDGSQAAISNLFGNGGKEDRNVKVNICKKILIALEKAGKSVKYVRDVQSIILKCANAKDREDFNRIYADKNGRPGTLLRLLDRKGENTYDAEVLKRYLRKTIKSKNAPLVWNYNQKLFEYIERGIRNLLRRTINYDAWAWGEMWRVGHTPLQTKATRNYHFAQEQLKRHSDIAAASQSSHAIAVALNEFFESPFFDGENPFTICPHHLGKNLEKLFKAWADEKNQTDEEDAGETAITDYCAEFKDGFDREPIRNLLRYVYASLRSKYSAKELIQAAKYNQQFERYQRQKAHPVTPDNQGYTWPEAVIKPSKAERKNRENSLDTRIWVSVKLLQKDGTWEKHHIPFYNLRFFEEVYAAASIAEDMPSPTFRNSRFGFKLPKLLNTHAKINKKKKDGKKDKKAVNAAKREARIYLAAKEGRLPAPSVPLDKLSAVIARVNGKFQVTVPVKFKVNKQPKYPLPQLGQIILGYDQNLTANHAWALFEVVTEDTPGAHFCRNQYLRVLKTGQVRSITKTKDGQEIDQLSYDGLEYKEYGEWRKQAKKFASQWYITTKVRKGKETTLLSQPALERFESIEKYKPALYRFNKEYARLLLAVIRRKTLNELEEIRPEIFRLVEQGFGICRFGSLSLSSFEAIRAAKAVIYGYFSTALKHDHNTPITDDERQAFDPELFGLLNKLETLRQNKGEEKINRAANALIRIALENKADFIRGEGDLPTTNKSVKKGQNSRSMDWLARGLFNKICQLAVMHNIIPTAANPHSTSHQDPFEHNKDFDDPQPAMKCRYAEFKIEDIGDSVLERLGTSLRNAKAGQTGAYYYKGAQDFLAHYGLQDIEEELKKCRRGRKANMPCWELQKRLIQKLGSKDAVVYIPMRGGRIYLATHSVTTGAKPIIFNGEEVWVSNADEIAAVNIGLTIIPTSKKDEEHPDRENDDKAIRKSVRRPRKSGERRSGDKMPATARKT
Protocol: (§1) Transfection: transfection was performed 12-14 h after plating. 1.5 μL PEI (Yeasen Biotechnology, 40815ES03, Polyethylenimine Linear (PEI) MW25000) and 500 ng mutation clone plasmid were added to 100 μL Opti-MEM per well of the 24-well plate, mixed, and added to the NAAN cell line for cell transfection after placing at room temperature for 20 min. After overnight transfection, a fresh culture medium was replaced, and the culture was continued for 72 h, followed by flow cytometry. Editing efficiencies of different mutant clones were characterized by the proportion of GFP-positive cells.
(§2) Editing efficiency of some selected mutants was tested in Reporter3 cell line using the same manner as described for the NAAN reporter system, except that the cell line was changed from NAAN cell line to Reporter3 cell line.

C12-279 Mut-03 = target: T2, C12-279 Mut-03 (synthetic construct, G184R,Q186R,D352R); experiment: cell_activity; PAM TTG
T2 chain: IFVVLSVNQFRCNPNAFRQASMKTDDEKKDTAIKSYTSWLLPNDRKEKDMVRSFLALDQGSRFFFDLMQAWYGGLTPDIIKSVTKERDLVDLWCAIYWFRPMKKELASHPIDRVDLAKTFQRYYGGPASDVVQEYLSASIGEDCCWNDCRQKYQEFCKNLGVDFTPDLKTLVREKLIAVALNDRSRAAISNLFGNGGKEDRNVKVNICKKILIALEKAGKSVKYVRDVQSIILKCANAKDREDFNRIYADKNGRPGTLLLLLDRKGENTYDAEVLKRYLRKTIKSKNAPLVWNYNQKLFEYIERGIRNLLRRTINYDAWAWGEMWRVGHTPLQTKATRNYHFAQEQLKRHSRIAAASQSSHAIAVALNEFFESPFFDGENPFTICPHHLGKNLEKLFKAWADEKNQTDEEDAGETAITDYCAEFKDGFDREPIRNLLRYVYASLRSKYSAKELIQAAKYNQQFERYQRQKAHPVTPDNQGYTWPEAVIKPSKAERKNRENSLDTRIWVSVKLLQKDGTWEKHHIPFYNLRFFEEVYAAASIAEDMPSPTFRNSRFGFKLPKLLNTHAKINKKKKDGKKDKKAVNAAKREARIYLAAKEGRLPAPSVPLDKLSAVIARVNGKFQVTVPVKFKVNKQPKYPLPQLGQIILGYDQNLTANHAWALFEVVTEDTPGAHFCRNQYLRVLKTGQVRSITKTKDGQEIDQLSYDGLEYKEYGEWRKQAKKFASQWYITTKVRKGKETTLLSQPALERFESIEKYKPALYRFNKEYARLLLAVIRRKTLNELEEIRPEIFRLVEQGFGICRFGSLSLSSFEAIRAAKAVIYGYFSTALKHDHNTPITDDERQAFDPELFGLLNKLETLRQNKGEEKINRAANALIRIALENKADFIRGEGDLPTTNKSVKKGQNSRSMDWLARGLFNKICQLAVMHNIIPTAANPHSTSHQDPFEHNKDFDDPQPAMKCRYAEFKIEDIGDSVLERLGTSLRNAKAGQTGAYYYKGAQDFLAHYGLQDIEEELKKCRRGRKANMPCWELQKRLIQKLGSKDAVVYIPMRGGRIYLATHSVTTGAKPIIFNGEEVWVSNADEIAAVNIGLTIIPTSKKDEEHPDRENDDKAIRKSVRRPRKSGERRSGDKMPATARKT
Protocol: as §1, §2

B1: C12-279 Reporter3 sgRNA ; Reporter3 target (ssRNA ; dsDNA)
RNA: GUAAUGCGUCUCCCAUUGACGCCUCACCUCGCGACGCAAUGAUG
DNA 1: CTCACCTCGCGACGCAATGATG
DNA 2: CATCATTGCGTCGCGAGGTGAG
- binding signal (C12-279 L260R): 0.66 fold of C12-279
- binding signal (C12-279 Mut-03): 2.28 fold of C12-279
